# Reference: patent publication US20230203482A1, “Methods of Rescuing Stop Codons via Genetic Reassignment with ACE-tRNA” (THE WISTAR INSTITUTE OF ANATOMY AND BIOLOGY, priority 2017, published 2023)
# Residue numbers refer to the chain shown, from its start.
# B1: TS-38: t-stem variant of Trpchr17.trna39, SEQ ID NO: 3 (nucleic acid)
# chain: GGCCTCGTGGCGCAACGGTAGCGCGTCTGACTTCAGATCAGAAGGTTCCGGGTTCAAATCCCGGCGGGGTCA
# modifications: expressed or natural sequence
# B2: ArgTGAchr1.trna10/nointron: ACE-tRNA Arg, TGA suppressor, SEQ ID NO: 6 (nucleic acid)
# chain: CGTCGGCTCCGTGGCGCAATGGATAGCGCATTGGACTTCAAATTCAAAGGTTCCGGGTTCGAGTCCCGGCGGAGTCG
# modifications: expressed or natural sequence
# B3: ArgTGAchr17.trna3/nointron: ACE-tRNA Arg, TGA suppressor, SEQ ID NO: 8 (nucleic acid)
# chain: B2 chain with C10T, C53G, C54T, G63A, G68A, G69C, G71A
# modifications: expressed or natural sequence
# B4: ArgTGAchr9.trna6/withintron: ACE-tRNA Arg, TGA suppressor, SEQ ID NO: 9 (nucleic acid)
# chain: CGTCGGCTCTGTGGCGCAATGGATAGCGCATTGGACTTCAAGCTGAGCCTAGTGTGGTCATTCAAAGGTTGTGGGTTCGAGTCCCACCAGAGTCG
# modifications: expressed or natural sequence
# B5: ArgTGAchr16.trna3: ACE-tRNA Arg, TGA suppressor, SEQ ID NO: 10 (nucleic acid)
# chain: CGTCGCCCCGGTGGCCTAATGGATAAGGCATTGGCCTTCAAAGCCAGGGATTGTGGGTTCGAGTCCCACCCGGGGTA
# modifications: expressed or natural sequence
# B6: ArgTGAchr1.trna10/withintron: ACE-tRNA Arg, TGA suppressor, SEQ ID NO: 11 (nucleic acid)
# chain: CGTCGGCTCCGTGGCGCAATGGATAGCGCATTGGACTTCAAGAGGCTGAAGGCATTCAAAGGTTCCGGGTTCGAGTCCCGGCGGAGTCG
# modifications: expressed or natural sequence
# B7: ArgTGAchr17.trna3/withinron: ACE-tRNA Arg, TGA suppressor, SEQ ID NO: 12 (nucleic acid)
# chain: CGTCGGCTCTGTGGCGCAATGGATAGCGCATTGGACTTCAAGTGACGAATAGAGCAATTCAAAGGTTGTGGGTTCGAATCCCACCAGAGTCG
# modifications: expressed or natural sequence
# B8: TrpTGAchr17.trna10: ACE-tRNA Trp, TGA suppressor, SEQ ID NO: 49 (nucleic acid)
# chain: B1 chain with G2A, C16T, C48G, G51T, A58G, C61A, G64T
# modifications: expressed or natural sequence
# B9: GlyTGAchr17.trna9: ACE-tRNA Gly, TGA suppressor, SEQ ID NO: 55 (nucleic acid)
# chain: GCGTTGGTGGTATAGTGGTAAGCATAGCTGCCTTCAAAGCAGTTGACCCGGGTTCGATTCCCGGCCAACGCA
# modifications: expressed or natural sequence
# B10: GlyTGAchr1.trna107: ACE-tRNA Gly, TGA suppressor, SEQ ID NO: 54 (nucleic acid)
# chain: B9 chain with A20G
# modifications: expressed or natural sequence
# B11: GlnTAGchr6.trna63: ACE-tRNA Gln, TAG suppressor, SEQ ID NO: 18 (nucleic acid)
# chain: CGTCGGTCCCATGGTGTAATGGTTAGCACTCTGGACTCTAAATCCAGCAATCCGAGTTCGAATCTCGGTGGGACCT
# modifications: expressed or natural sequence
# B12: GlnTAGchr17.trna14: ACE-tRNA Gln, TAG suppressor, SEQ ID NO: 19 (nucleic acid)
# chain: B11 chain with A49G, G60A
# modifications: expressed or natural sequence
# B13: GlnTAGchr6.trna132: ACE-tRNA Gln, TAG suppressor, SEQ ID NO: 20 (nucleic acid)
# chain: B11 chain with T7C, T24C, A49G, G60A, T76C
# modifications: expressed or natural sequence
# B14: GlnTAGchr1.trna17: ACE-tRNA Gln, TAG suppressor, SEQ ID NO: 16 (nucleic acid)
# chain: B11 chain with C8T, T24G, A49G, A62G, G72A
# modifications: expressed or natural sequence
# B15: GlnTAGchr6.trna175: ACE-tRNA Gln, TAG suppressor, SEQ ID NO: 17 (nucleic acid)
# chain: B11 chain with T7C, A49G, G60A
# modifications: expressed or natural sequence
# B16: TrpTAGchr12.trna6: ACE-tRNA Trp, TAG suppressor, SEQ ID NO: 36 (nucleic acid)
# chain: CGTCGACCTCGTGGCGCAACGGTAGCGCGTCTGACTCTAGATCAGAAGGCTGCGTGTTCGAATCACGTCGGGGTCA
# modifications: expressed or natural sequence
# B17: TrpTAGchr17.trna10: ACE-tRNA Trp, TAG suppressor, SEQ ID NO: 33 (nucleic acid)
# chain: B16 chain with C20T, C50T, G60A, A62G
# modifications: expressed or natural sequence
# Tested on: NLuc-UGA PTC
# Experiment: NanoLuc nonsense reporter screen (all-in-one HTC plasmid), TGA/UGA PTC, HEK293 cells
# Type: cell-based, human
# Conditions: HEK cells, luciferase 24 hours post-transfection
# From the text: Several different nonsense mutations cause CF, thus underlying roughly 10% of all CF disease. FIG. 7. These cases are concentrated into […] specific genetic lesions: E60X, R75X, G542X, R553X, Q890X, Y1092X, R1158X, R1162X and W1282X. A screen was developed to screen existing human tRNA sequences for modification and tolerance to anti-codon editing. To this end, roughly 144 ACE-tRNAs were candidates to test for those that could be used to promote the repair of the disease causative nonsense codon and the expression of the full-length protein. Specifically, using the scheme described in FIG. 11, tRNA libraries were generated to identify novel tRNA sequences that encode for ACE tRNA with the ability to repair the top CF causative nonsense mutations. Specifically, 10 ng of annealed oligos encoding the ACE-tRNAs were combined with 50 ng of NanoLuc reporter plasmid, 1 μl 10×CutSmart Buffer (NEB), 1 μl T4 ligase (NEB), 10 mM ATP and 1 μl BbsI (NEB) and cycled in a thermocycler as described in FIG. 11. 1 μl of the reaction was transformed into competent E. coli and the transformants were plated on ampicillin agar plates. One transformant was picked per plate was picked, grown in 1 ml of LB under ampicillin selection, miniprepped and sequence verified.
# Screening studies were first performed to identify the best ACE-tRNA Candidates from tryptophan and glycine. 125 ng of sequence verified miniprep cDNA of NanoLuc reporter plasmid with ACE-tRNA was transfected into HEK cells using calcium phosphate. HEK cells were plated in 96 well plates at 4×10^4 the day prior. 24 hours after transfection the media was replaced with 20 μl of PBS and 15 μl of NanoGlo reagent (Promega) was added. Plates were read on a SpectraMax i3 (Molecular Devices). Data are of replicates of 3 or greater. FIG. 8.
# FIG. 10. An additional modification of the tRNA was made to further enable their function for the purpose of suppression of nonsense codons and the promotion of protein expression. […] To this end, single and double mutations were directly engineered into the t-stem loop of tRNA Trpchr17.trna39—an ACE-tRNA identified with activity for the rescue of tryptophan TGA nonsense codons. Thirty-eight tRNA t-stem variants were thus generated and screened in HEK cells transiently transfected with the nonsense rescue reporter construct shown in FIG. 4. […] This is a generalizable modification, that is, new tRNA sequences identified, by example 1 and 2, can be made better (for their ability to rescue nonsense codons) through further rationale modifications. Such approaches aid in the therapeutic utility of ACE-tRNA directed to tissue types with low abundance target RNA or where tRNA delivery may be limiting.
# In order to enable the identification of the nucleotide composition and functional ability to suppress nonsense codons by new types of tRNA, an All-In-One Plasmid With A One Pot Cloning Reaction was invented for High Throughput Cloning FIG. 11. This approach enables the facile investigation of ACE-tRNA activity via luciferase activity in a standard 96 well format. Briefly, synthetic nucleotide sequences encoding for tRNA are ligated into the NanoLuc Reporter plasmid, with an example of the TGA nonsense reporter plasmid variant shown in FIG. 11. […] and TAG (amber) stop codon rescue vectors have been successfully designed and implemented in FIGS. 16-19. The benefits are the approach is that DNA oligos encoding for tRNA libraries can be ligated in the NanoLuc reporter plasmid with the presence of the restriction enzyme and ligase with the reaction pushed to nearly 100% incorporation of tRNA insert (FIG. 11)-thus the ‘one-pot’ designation. The reaction is transformed into E. coli, with the resultant cDNA purified by standard methods. […]
row,Molecule,enhancement of the suppression ability of Trpchr17.trna39 by t-stem mutation
1,B1,roughly 250%

# Same assay, conditions: Table 1, Arg TGA
row,Molecule,Ranking
1,"ArgTGAchr9.trna6/nointron: ACE-tRNA Arg, TGA suppressor, SEQ ID NO: 4",#1
2,"ArgTGAchr17.trna19: ACE-tRNA Arg, TGA suppressor, SEQ ID NO: 5",#2
3,"ArgTGAchr7.trna5: ACE-tRNA Arg, TGA suppressor, SEQ ID NO: 7",#4
4,B2,#3
5,B3,#4
6,B4,#5
7,B5,#5
8,B6,#6
9,B7,#7

# Same assay, conditions: Table 7, Trp TGA
row,Molecule,Ranking
1,"TrpTGAchr6.trna171: ACE-tRNA Trp, TGA suppressor, SEQ ID NO: 50",#3
2,B8,#2

# Same assay, conditions: Table 8, Gly TGA
row,Molecule,Ranking
1,B9,#3
2,B10,#2

# Tested on: NLuc-UAG PTC
# Experiment: NanoLuc nonsense reporter screen (all-in-one HTC plasmid), TAG/UAG PTC, HEK293 cells
# Type: cell-based, human
# Conditions: Table 2, Gln TAG
# From the text: In order to enable the identification of the nucleotide composition and functional ability to suppress nonsense codons by new types of tRNA, an All-In-One Plasmid With A One Pot Cloning Reaction was invented for High Throughput Cloning FIG. 11. This approach enables the facile investigation of ACE-tRNA activity via luciferase activity in a standard 96 well format. Briefly, synthetic nucleotide sequences encoding for tRNA are ligated into the NanoLuc Reporter plasmid, with an example of the TGA nonsense reporter plasmid variant shown in FIG. 11. […] and TAG (amber) stop codon rescue vectors have been successfully designed and implemented in FIGS. 16-19. The benefits are the approach is that DNA oligos encoding for tRNA libraries can be ligated in the NanoLuc reporter plasmid with the presence of the restriction enzyme and ligase with the reaction pushed to nearly 100% incorporation of tRNA insert (FIG. 11)-thus the ‘one-pot’ designation. The reaction is transformed into E. coli, with the resultant cDNA purified by standard methods. Another benefit of the invented method is that the tRNA and reporter gen are within the single expression cassette, therefore lowering biological variability and improving data quality obtaining in resulting screens of tRNA suppression activity. The purified cDNA plasmids are then screened in high-throughput 96 well format for their ability to repair nonsense codons by inferred luciferase activity. The approach is suitable for the high-throughput screening of hundreds to thousands of tRNA for novel therapeutic activity.
# The rationale of this study is rooted in the observation that there are multiple tRNA genes with unique sequences (isodecoders) for a given cognate amino acid (isoacceptors), leading to >400 tRNAs annotated in the human genome (http:lowelab.ucsc.edu/GtRNAdb/)^28, 29. First, tRNA genes were examined to identify individual ACE-tRNAs that retain suppression efficacy of PTCs in mammalian cells. In order to maximize sequence coverage, an all-in-one cDNA plasmid was generated that supports both high-throughput cloning (HTC) of ACE-tRNAs and quantitative measurement of PTC suppression using luminescence following delivery to mammalian cells, FIG. 21B. ACE-tRNA sequences were cloned as DNA oligos into the HTC plasmid using Golden Gate cloning^30 paired with ccdB negative selection^31. This strategy produced ˜100% cloning efficiency. ACE-tRNA suppression efficiency was read out from a split NanoLuc luciferase (NLuc) NanoBiT platform whereby the PTC of interest (UGA, UAA, or UAG) was introduced in-frame at the junction between the large bit and small bit domains, FIG. 21B^32, using a 96-well format and normalized to background obtained in NLuc-PTC expressing cells. Twenty-one glycine ACE-tRNAs were first evaluated for suppression of the UGA PTC, FIG. 22, top left, column 1 (violet). […] Given the high sequence conservation among the Gly-tRNAs screened for anti-codon tolerance (FIG. 27), it would be difficult to predict de novo which tRNA would be most amenable to anticodon-editing.
# The parent plasmid used was pcDNA3.1(+). The cDNA encoding pNLuc was Gibson Assembled (New England Biolabs, USA) into restriction sites HindIII and XhoI. A glycine (codon gga), tryptophan ([…]), amber (tag), opal (tga) and ochre (taa), were added to amino acid position 160 during cDNA per. The pcDNA3.1(+) polyA sequence was replaced for one with no BbsI restriction sites using per based Gibson Assembly. The high throughput ACE-tRNA Golden Gate cloning site was generated by first inserting the 5′ leader sequence of the human tRNA^Tyr gene (bold) with a T7 promoter sequence upstream (italics)
# tRNA gene sequences were obtained from the tRNA database tRNAscan-SE (http://gtrnadb.ucsc.edu/index.html; PMID: 26673694). […]
row,Molecule,Ranking
1,B11,#3
2,B12,#4
3,B13,#5
4,B14,#1
5,B15,#2

# Same assay, conditions: Table 4, Trp TAG
row,Molecule,Ranking
1,"TrpTAGchr6.trna171: ACE-tRNA Trp, TAG suppressor, SEQ ID NO: 34",#2
2,"TrpTAGchr17.trna39: ACE-tRNA Trp, TAG suppressor, SEQ ID NO: 35",#3
3,B16,#4
4,B17,#1
